Experimental data published in US20140322216A1.

Target: human glypican-3 naturally expressed on the cell surface (HepG2 and other GPC3+ cell lines) (human) (UniProt P51654)
Experiment: flow cytometry on HepG2, 1G12 with anti-mouse dye, grey = isotype control; on Hs578T the histogram lies on the control's

Chain of human glypican-3 naturally expressed on the cell surface (HepG2 and other GPC3+ cell lines) (human) (P51654 25-554 limits assumed): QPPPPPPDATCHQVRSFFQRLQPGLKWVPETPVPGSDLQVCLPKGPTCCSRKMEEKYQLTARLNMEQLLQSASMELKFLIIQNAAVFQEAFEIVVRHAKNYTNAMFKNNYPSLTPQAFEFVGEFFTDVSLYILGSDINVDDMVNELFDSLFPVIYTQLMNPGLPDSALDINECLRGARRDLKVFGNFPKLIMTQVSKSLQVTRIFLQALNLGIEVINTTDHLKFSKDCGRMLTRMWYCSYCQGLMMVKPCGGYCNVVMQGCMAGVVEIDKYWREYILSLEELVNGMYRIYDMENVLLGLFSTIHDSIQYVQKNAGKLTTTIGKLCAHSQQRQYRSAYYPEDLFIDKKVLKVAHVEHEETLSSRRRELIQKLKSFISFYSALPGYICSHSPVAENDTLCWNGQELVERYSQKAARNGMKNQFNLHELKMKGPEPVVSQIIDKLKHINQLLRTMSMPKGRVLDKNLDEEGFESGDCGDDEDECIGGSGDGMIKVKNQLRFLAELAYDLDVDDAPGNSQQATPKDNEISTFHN

commercial monoclonal anti-human GPC3 antibody (clone 1G12)
% of cells in the positive gate: 46.1%
